Reference: the supplement of paper PMC9732359
± gives the uncertainty stated by the source.

assay: protein stability index of a GFP-peptide fusion (yeast GPS) (PSI 1-4); higher = more stable; sorted into four equal gates, so the index is relative within each strain; details: doa10∆
Procedure, shortened: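 Tiled yeast protein peptides of 17 residues were each joined downstream of GFP, on plasmids that also express Cherry. The pooled library was maintained in yeast, and mid-log cultures in leucine-free medium were sorted into four equal gates on the GFP/Cherry ratio. Plasmids from every gate were amplified by PCR and sequenced on Illumina, with barcodes linking reads to strains. The protein stability index of a peptide is its gate-number-weighted read frequency summed over the gates.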

Row | Sequence | protein stability index
1 | NKHLTTLVEIFLERKCV [SSN3] | 2.6 ± 0.17
2 | NKIINWEISNPDFLSKY [NUT1] | 2.06 ± 0.047
3 | NKIRNLELPLCPYCYKK [SIR2] | 2.52 ± 0.055

same assay, conditions: pdr5∆

Row | Sequence | protein stability index
4 | MGKGTPSFGKRHNKSHT [RPL37A] | 3.4 ± 0.067
5 | MGQIATFIYFAYFLIIV [COB] | 1.29 ± 0.046
6 | MGVIKKKRSHHGKASRQ [SNF6] | 3.15 ± 0.12
7 | MGVRTFSQKEMAFNLLG [FAS2] | 1.9 ± 0.057
8 | MHSYFIFKDLVTVFLFM [COB] | 1.32 ± 0.037
9 | MINDENYIINDIKKNNK [SRB8] | 2.97 ± 0.095
10 | MINGRKLIKFETRNEDD [FAS1] | 2.81 ± 0.068
11 | MINRLLLCALDRKDQDD [RPB2] | 3.11 ± 0.1
12 | MIVYYKDAISFIKEIHK [YCS4] | 1.84 ± 0.069
13 | MKLVNFLKKLRNEQVTI [SMD1] | 1.93 ± 0.095
14 | MKPSEILSLIEEAAGTK [SMC2] | 3.23 ± 0.084
15 | MKQLKFFKPLDYITEAV [SNU114] | 2.05 ± 0.052
16 | MKRMVAQWERSKLSQEF [SNF12] | 3.05 ± 0.15
17 | MKTPSLTVYLEPGHAAD [RPO21] | 2.7 ± 0.079
18 | MKVEELIIDGFKSYATR [SMC2] | 3.21 ± 0.08
19 | MKVKADRDESSPYAAML [RPS14A] | 3.29 ± 0.065
20 | MLSAHNIIESIANFSRA [YJR042W/NUP85] | 2.43 ± 0.063
21 | MNFISKEEFIMMVNISV [PCI8] | 1.25 ± 0.046
22 | MNFNTPQQNKTPFSFGT [YJL041W/NSP1] | 3 ± 0.051
23 | MNNETSGKETASAPLCS [DLS1] | 3.21 ± 0.06
24 | MNQSSIDRGLFRSLFFR [RPB2] | 2.97 ± 0.2
25 | MPDEFNTLYTAIITDDL [SRP72] | 2.5 ± 0.043
26 | MQANKLDSQETPSTEES [SWI3] | 2.35 ± 0.073
27 | MQEKAAHIAKNLINLSI [YCS4] | 1.55 ± 0.2
28 | MQGKITKVLNMKPSEIL [SMC2] | 2.88 ± 0.18

Row | Sequence | protein stability index
29 | MQTALRRLPEDESYARA [QCR7] | 2.5 ± 0.066
30 | MQVLNTKSETKQENETM [MED11] | 2.16 ± 0.11
31 | MSAKAEKKPASKAPAEK [HTB1] | 3.41 ± 0.12
32 | MSDHSLDKLNCAINSKS [RRP6] | 2.8 ± 0.047
33 | MSESSDISAMQPVNPKP [SMX3] | 3.51 ± 0.16
34 | MSGSLKSLDKKIAKRRQ [POP3] | 2.98 ± 0.21
35 | MSGYDRALSIFSPDGHI [PRE6] | 2.38 ± 0.14
36 | MSKITSSQVREHVKELL [RPL1A] | 2.09 ± 0.065
37 | MSLRHFGHLMHYGNEHI [RPN1] | 1.38 ± 0.039
38 | MSLVVQEQGSFQHILRL [RPS18A] | 2.83 ± 0.12
39 | MSNKVKTKAMVPPINCI [SME1] | 2.35 ± 0.053
40 | MSQGQSKKLDVTVEQLR [NSL1] | 2.74 ± 0.075
41 | MSQSTASLVPEGNQGSL [MED8] | 2.97 ± 0.1
42 | MSSTNGNAPATPSSDQN [SOH1] | 2.75 ± 0.1
43 | MSTDSIVKASNWRLVEV [RPL14A] | 1.44 ± 0.13
44 | MSTFIFPGDSFPVDPTT [RRP40] | 2.06 ± 0.092
45 | MTDMQIQWYKSLLEKDI [ISW2] | 2.35 ± 0.062
46 | MTLNRKCVVIHNGSHRT [ARP7] | 2.74 ± 0.062
47 | MTPLLVNCLELLINTNF [PCI8] | 1.6 ± 0.042
48 | MTPVIEKIAAGYMQKPV [PRP28] | 1.93 ± 0.11
49 | MVLFNIYDDWLDRISSY [PRP8] | 2.47 ± 0.046
50 | MVMAGSKGSFINIAQMS [RPO21] | 1.67 ± 0.049
51 | MVNESDGVTHALYPQEA [RPB2] | 3.26 ± 0.081
52 | MYPSPTGVMIGIDLAYN [PRP8] | 2.1 ± 0.07
53 | MYTLSAQDEVFSLAFSP [ASC1] | 2.82 ± 0.085

Row | Sequence | protein stability index
54 | NAAGNTPDATKIKAILE [RPP2A] | 3.32 ± 0.092
55 | NACAKYGRDDMENIKKS [ISW2] | 2.93 ± 0.12
56 | NADLDVKDELMFSPLVD [RPO21] | 3.08 ± 0.04
57 | NAGTEKEKESKKDSKPA [YLR335W/NUP2] | 3.15 ± 0.074
58 | NANAGLFNKPPSTNAQN [YOR098C/NUP1] | 3.17 ± 0.046
59 | NANTVFAGSNNQPHQSQ [YOR098C/NUP1] | 3.15 ± 0.08
60 | NAQQTFHIDHTKPSDLT [RPO21] | 2.6 ± 0.042
61 | NAQSKLSLTLNTHYHAD [SNF2] | 2.81 ± 0.11
62 | NARIYNTEGSVVYEDSL [SNF2] | 3.25 ± 0.085
63 | NAYGFIEWCSRCNDNLM [YJL039C/NUP192] | 2.54 ± 0.088
64 | NDDALDLDLDLFDPDDF [MED4] | 3.04 ± 0.068
65 | NDDSSSMNATMRNFSKQ [YDL088C/ASM4] | 3.14 ± 0.11
66 | NDEPSHKKIKVAQPDSL [SIR2] | 2.31 ± 0.071
67 | NDINISSIENNINNNIN [MED2] | 3 ± 0.047
68 | NDLGKFIPNKQLNCVID [RPN7] | 2.85 ± 0.19
69 | NDLHHSEKKYAEEDQVQ [RPN3] | 3.3 ± 0.16
70 | NDLVKARDLLDDLEKTL [RPN9] | 3.43 ± 0.097
71 | NDPSAEVRRAAMLNLIN [YCG1] | 3.42 ± 0.21
72 | NEKLECISLGSTKLSRP [ITC1] | 2.64 ± 0.052
73 | NENEDEDEGTLNVAEII [ARP9] | 2.91 ± 0.14
74 | NENKVIIELPNEKFEIE [SRB4] | 2.86 ± 0.081
75 | NENNSNGGEDTSVENEG [REC8] | 3.44 ± 0.14
76 | NFAHSDSLSVPKVSAGD [SIR4] | 2.98 ± 0.12
77 | NFALTTLIDLVKHSPGA [ECM29] | 1.79 ± 0.071
78 | NFEATKKSVLKQVQDFE [COR1] | 2.39 ± 0.25

Row | Sequence | protein stability index
79 | NFETEWNLQTLAADDAF [RPB11] | 2.83 ± 0.13
80 | NFLIKLSELSPGIMLRQ [YCS4] | 2.98 ± 0.1
81 | NFPEASKLSEHLNHYIL [YCG1] | 2.51 ± 0.11
82 | NFRILKSFTNDKIPLNY [SRB5] | 2.77 ± 0.057
83 | NFYRPLLRSVLVLLELV [YML103C/NUP188] | 1.21 ± 0.087
84 | NGEIKGENIDADNDGPR [SNF2] | 3.48 ± 0.069
85 | NGFHGRLGDLGVIDDSF [SMC4] | 3.35 ± 0.11
86 | NGGSEEEITCALDYLIP [MED7] | 3.45 ± 0.13
87 | NGIPLKSKERSSQFVRL [YMR129W/POM152] | 2.6 ± 0.14
88 | NGKVQYFLRRQYILQIV [YJL039C/NUP192] | 1.56 ± 0.07
89 | NGLIISWSNGKITSPIR [RRP42] | 2.98 ± 0.14
90 | NGNDESSEYETINISLS [NUT1] | 3.32 ± 0.2
91 | NGTLIGCVSYSPAALKQ [YMR153W/NUP53] | 2.27 ± 0.086
92 | NGVVKKAAAGAGSAALK [RPO31] | 3.11 ± 0.27
93 | NHDRINISNNLQKALTV [RPN8] | 3.29 ± 0.062
94 | NHLDELQKKFVTKQSEL [SMC1] | 3.06 ± 0.14
95 | NIAKDLKWKKGIRGKLV [SMC1] | 2.04 ± 0.14
96 | NILWAIYNSASKASMQK [YCS4] | 2.11 ± 0.13
97 | NINEVKKASDLVDTPSN [NUT1] | 2.97 ± 0.085
98 | NIPKPLNSYHIKNGRIY [RGR1] | 2.18 ± 0.03
99 | NIRSQLLSENRSEKSTT [SRP54] | 3 ± 0.1
100 | NITDYETHPDNSNKQAV [BRR2] | 3 ± 0.045
101 | NIVDSSAAGNKAIPTFS [YIL149C/MLP2] | 2.44 ± 0.077
